In the supplement of paper PMC10065799, “High-throughput profiling of sequence recognition by tyrosine kinases and SH2 domains using bacterial peptide display” (eLife, 2023):

How the values were obtained:
Hck = Hck (UniProt P08631); assay: phosphorylation enrichment, bacterial display (enrichment ratio); higher = better substrate or ligand; peptides without Tyr show the background
EPHB2 = EPHB2 (UniProt P29323); assay: as above
Fer (mouse) = assay: as above
Fyn = Fyn (UniProt P06241); assay: as above
Fyn, sequence (P06241 whole entry, looked up): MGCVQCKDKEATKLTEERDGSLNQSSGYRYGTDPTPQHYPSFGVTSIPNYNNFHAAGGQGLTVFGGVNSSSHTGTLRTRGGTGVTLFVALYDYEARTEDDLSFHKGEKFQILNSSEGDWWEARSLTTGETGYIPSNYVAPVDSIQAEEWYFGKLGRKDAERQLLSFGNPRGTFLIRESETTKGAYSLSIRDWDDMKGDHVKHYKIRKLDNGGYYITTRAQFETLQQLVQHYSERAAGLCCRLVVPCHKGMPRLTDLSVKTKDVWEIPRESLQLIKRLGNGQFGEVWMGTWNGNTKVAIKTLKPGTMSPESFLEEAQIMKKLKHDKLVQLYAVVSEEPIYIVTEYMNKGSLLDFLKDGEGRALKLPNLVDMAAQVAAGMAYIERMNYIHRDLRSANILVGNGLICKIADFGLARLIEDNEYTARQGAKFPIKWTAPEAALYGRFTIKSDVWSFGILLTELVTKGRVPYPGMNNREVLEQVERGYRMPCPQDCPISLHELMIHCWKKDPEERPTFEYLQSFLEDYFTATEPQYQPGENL

EPHB1 = EPHB1 (UniProt P54762); assay: as above
Fes = Fes (UniProt P07332); assay: as above
Fes, sequence (P07332 whole entry, looked up): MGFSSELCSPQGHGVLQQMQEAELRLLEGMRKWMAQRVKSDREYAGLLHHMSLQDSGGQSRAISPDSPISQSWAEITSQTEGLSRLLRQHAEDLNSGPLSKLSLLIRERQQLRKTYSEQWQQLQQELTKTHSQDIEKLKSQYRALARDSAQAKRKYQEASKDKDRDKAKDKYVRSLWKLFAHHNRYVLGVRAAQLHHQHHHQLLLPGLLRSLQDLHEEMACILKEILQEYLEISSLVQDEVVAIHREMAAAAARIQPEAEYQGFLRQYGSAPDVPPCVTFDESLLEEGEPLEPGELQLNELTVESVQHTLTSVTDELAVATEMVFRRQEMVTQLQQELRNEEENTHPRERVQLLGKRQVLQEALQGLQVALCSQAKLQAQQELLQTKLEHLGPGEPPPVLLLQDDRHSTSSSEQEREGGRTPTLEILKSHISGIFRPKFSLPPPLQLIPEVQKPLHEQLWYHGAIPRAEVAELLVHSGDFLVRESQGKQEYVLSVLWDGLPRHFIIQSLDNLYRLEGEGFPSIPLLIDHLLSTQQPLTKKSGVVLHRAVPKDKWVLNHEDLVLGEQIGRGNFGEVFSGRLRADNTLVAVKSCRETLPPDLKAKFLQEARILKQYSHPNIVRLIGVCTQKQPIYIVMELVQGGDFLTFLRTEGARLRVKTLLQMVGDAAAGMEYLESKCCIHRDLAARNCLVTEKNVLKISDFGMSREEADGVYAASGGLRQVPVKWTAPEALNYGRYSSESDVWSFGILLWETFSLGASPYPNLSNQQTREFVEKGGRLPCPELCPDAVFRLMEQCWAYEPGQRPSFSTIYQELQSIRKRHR

AncSZ = assay: as above
FGFR1 = FGFR1 (UniProt P11362); assay: as above
c-Abl (mouse) = assay: as above
FGFR3 = FGFR3 (UniProt P22607); assay: as above
Jak2 = Jak2 (UniProt O60674); assay: as above
Jak2, sequence (O60674 whole entry, looked up): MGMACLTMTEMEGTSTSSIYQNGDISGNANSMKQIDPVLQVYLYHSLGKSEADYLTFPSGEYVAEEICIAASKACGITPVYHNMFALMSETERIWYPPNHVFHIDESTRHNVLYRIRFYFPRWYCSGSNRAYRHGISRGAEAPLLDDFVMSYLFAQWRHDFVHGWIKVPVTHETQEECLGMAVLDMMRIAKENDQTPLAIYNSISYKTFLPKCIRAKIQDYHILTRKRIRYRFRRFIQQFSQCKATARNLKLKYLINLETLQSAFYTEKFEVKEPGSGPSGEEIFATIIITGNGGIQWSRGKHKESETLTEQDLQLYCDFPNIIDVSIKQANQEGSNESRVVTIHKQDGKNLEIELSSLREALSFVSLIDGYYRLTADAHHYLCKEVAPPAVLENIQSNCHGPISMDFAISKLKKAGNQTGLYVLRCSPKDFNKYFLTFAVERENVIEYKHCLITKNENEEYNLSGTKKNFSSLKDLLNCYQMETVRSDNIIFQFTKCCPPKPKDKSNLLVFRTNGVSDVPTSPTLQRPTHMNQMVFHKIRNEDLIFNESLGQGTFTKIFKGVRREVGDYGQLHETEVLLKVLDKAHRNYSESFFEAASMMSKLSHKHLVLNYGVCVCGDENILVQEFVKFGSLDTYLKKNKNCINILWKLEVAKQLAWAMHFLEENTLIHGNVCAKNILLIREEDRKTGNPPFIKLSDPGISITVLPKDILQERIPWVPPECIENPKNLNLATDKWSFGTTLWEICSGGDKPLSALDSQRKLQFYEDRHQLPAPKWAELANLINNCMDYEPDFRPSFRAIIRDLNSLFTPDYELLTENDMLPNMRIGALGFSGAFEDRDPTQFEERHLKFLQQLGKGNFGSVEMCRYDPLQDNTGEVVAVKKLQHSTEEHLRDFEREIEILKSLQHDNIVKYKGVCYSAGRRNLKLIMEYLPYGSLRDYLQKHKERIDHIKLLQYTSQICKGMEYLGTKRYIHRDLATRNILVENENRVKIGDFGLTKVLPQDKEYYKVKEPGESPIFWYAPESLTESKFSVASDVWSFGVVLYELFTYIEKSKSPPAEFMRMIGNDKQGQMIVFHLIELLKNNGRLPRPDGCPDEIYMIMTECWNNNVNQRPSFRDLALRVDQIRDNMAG

c-Src = assay: as above
MERTK = MERTK (UniProt Q12866); assay: as above
c-Src SH2 = assay: SH2 binding enrichment of the phosphorylated peptide, bacterial display (enrichment ratio); higher = better substrate or ligand; peptides without Tyr show the background
SHP2-C SH2 = assay: as above
Grb2 SH2 = Grb2 SH2 (UniProt P62993); assay: as above
Grb2 SH2, sequence (P62993 whole entry, looked up, the tested form may be a part): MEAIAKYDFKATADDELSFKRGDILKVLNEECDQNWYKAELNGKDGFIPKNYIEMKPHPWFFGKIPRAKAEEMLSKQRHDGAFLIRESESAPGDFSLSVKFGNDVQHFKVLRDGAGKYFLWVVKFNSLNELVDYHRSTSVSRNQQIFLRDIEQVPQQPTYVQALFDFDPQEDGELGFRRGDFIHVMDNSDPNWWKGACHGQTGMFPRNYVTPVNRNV
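Wherever SH2 binding enrichment of the phosphorylated peptide, bacterial display is given: peptide library displayed on the E. coli surface as eCPX fusions, selected cells deep-sequenced, score is each peptide's frequency after selection divided by its frequency in the input.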
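Wherever phosphorylation enrichment, bacterial display is given: 11-residue human phosphosite peptides and single-mutation variants displayed on the E. coli surface, counted by deep sequencing, each peptide's frequency after selection divided by its frequency in the unselected input library; frequency after pTyr selection over input frequency; kinase dosed for 20-30% of maximal phosphorylation in three min.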

EPHB2, sequence (P29323 whole entry, looked up): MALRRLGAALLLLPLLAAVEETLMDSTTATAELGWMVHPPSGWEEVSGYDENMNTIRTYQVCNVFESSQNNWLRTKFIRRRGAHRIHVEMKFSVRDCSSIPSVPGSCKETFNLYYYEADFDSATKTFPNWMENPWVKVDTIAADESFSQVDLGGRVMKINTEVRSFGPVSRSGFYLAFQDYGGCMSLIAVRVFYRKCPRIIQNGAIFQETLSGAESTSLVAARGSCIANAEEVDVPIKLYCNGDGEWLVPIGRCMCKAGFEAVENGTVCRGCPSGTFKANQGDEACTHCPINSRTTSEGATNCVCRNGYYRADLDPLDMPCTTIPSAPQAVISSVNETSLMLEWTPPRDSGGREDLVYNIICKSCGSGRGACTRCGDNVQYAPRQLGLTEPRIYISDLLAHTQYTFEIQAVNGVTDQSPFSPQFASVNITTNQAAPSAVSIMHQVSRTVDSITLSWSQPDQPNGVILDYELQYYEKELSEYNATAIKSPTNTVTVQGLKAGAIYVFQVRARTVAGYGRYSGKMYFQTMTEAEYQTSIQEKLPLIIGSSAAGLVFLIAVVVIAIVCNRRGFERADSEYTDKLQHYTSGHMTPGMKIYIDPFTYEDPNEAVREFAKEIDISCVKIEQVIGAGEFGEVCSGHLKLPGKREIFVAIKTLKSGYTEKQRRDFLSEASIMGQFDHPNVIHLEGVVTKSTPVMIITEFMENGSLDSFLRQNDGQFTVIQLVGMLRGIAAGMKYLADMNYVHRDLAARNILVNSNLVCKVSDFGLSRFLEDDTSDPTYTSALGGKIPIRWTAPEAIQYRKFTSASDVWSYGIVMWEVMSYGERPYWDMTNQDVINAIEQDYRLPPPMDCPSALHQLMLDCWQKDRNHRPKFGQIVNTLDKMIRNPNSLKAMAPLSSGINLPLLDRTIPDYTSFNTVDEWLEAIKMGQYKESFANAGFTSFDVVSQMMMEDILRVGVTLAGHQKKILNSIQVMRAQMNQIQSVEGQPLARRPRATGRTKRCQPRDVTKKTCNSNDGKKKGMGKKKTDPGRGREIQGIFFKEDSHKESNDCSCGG
Hck, sequence (P08631 whole entry, looked up): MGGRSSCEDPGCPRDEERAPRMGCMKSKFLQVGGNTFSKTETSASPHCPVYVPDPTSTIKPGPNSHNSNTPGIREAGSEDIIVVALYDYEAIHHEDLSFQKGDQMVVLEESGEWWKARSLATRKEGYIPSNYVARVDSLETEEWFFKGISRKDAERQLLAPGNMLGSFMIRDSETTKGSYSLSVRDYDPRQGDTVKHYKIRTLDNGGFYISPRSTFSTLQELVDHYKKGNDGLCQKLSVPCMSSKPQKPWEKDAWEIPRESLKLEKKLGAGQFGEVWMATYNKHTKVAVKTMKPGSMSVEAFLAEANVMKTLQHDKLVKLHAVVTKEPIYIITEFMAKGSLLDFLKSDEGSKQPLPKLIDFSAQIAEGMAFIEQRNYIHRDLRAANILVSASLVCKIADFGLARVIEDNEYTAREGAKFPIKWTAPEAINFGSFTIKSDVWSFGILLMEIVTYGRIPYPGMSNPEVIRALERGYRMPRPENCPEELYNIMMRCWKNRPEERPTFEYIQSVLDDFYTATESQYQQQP

Row | Sequence | phosphorylation enrichment (Hck) | phosphorylation enrichment (EPHB2) | phosphorylation enrichment (Fer (mouse)) | phosphorylation enrichment (Fyn) | phosphorylation enrichment (EPHB1) | phosphorylation enrichment (Fes) | phosphorylation enrichment (AncSZ) | phosphorylation enrichment (FGFR1) | phosphorylation enrichment (c-Abl (mouse)) | phosphorylation enrichment (FGFR3) | phosphorylation enrichment (Jak2) | phosphorylation enrichment (c-Src) | phosphorylation enrichment (MERTK) | SH2 binding enrichment (c-Src SH2) | SH2 binding enrichment (SHP2-C SH2) | SH2 binding enrichment (Grb2 SH2)
1 | ATATEYHTTSH [SLC4A1_Y46_D45E] | 0.333 | 0.55 | 0.301 | 0.38 | 0.316 | 0.509 | 0.506 | 0.456 | 0.487 | 0.309 | 0.99 | 0.413 | 0.395 | 0.548 | 0.518 | 1
2 | ATDLAYYLVCK [ASL_Y375_R379C] | 1.02 | 0.885 | 0.696 | 0.852 | 1.08 | 1.77 | 2.13 | 3.43 | 1.04 | 3.06 | 2.82 | 1.06 | 0.884 | 0.59 | 0.505 | 0.803
3 | ATGLIYIGSHD [AASDH_Y870_T865A] | 0.469 | 0.724 | 0.52 | 0.427 | 0.724 | 1.15 | 0.827 | 0.427 | 0.881 | 0.684 | 0.809 | 0.492 | 0.543 | 0.598 | 0.526 | 0.759
4 | ATHRGYDLDNP [MMUT_Y146_S148L] | 0.411 | 0.434 | 0.413 | 0.392 | 0.459 | 0.79 | 0.64 | 0.409 | 0.614 | 0.727 | 0.698 | 0.377 | 0.343 | 0.384 | 0.654 | 0.721
5 | ATPKGYEPDAS [OTC_Y223] | 0.444 | 0.575 | 0.508 | 0.501 | 0.439 | 0.843 | 0.738 | 0.49 | 0.729 | 0.59 | 0.79 | 0.541 | 0.489 | 0.557 | 1.02 | 0.933
6 | ATRDVYNPFET [SCAMP3_Y41_L38R] | 1.06 | 0.454 | 0.457 | 1.08 | 0.454 | 1.03 | 0.835 | 0.54 | 0.617 | 0.598 | 0.901 | 1.48 | 0.485 | 0.427 | 0.658 | 0.703
7 | AVAFLYFKSIG [ADGRL4_Y301_V300L_YF] | 0.516 | 0.649 | 0.605 | 0.483 | 0.683 | 1.62 | 1.14 | 0.549 | 0.851 | 0.837 | 1.33 | 0.441 | 0.478 | 0.569 | 1.07 | 0.806
8 | AVEDQYFCVDC [FHL1_Y207_YF] | 0.791 | 0.862 | 0.7 | 0.775 | 1.17 | 1.64 | 2.15 | 5.2 | 0.868 | 3.66 | 1.48 | 0.703 | 0.622 | 0.662 | 0.736 | 0.849
9 | AVLSLYASGST [ACTG2_Y144_R148S] | 0.638 | 0.722 | 0.558 | 0.476 | 0.729 | 1.26 | 1.08 | 0.572 | 0.829 | 0.723 | 1.09 | 0.541 | 0.414 | 0.611 | 0.907 | 1.06
10 | AVVEPYNSLLT [TUBA1A_Y185_I188L] | 0.427 | 0.618 | 0.394 | 0.426 | 0.574 | 0.891 | 0.888 | 0.399 | 0.579 | 0.54 | 1.19 | 0.463 | 0.454 | 1.31 | 0.648 | 0.786
11 | AYRRGYFDEEM [PLEC_Y2971] | 0.397 | 0.377 | 0.389 | 0.442 | 0.469 | 0.906 | 1.13 | 0.477 | 0.54 | 0.5 | 0.849 | 0.371 | 0.412 | 0.463 | 0.91 | 0.573
12 | CDKEFYSVHNK [MET_Y1235_Y1230C_YF] | 0.46 | 0.586 | 0.405 | 0.504 | 0.461 | 0.827 | 0.732 | 0.441 | 0.55 | 0.606 | 0.68 | 0.491 | 0.423 | 0.727 | 0.902 | 1
13 | CDSSGYWTPEE [PAPPA2_Y908] | 0.555 | 0.654 | 0.556 | 0.454 | 0.676 | 1.47 | 1.25 | 0.579 | 0.727 | 0.783 | 1.22 | 0.508 | 0.494 | 14.9 | 1.08 | 0.967
14 | CEETFYTMKMN [MASP2_Y401_V405M] | 1.09 | 0.894 | 0.935 | 1.59 | 0.939 | 1.87 | 1.99 | 0.666 | 1.3 | 1.11 | 1.83 | 2.6 | 0.829 | 0.575 | 0.657 | 0.771
15 | CEHRGCLFLAI [TEK_Y897_Y897C_YF] | 0.38 | 0.468 | 0.421 | 0.334 | 0.554 | 1.13 | 1.02 | 0.455 | 0.601 | 0.624 | 0.797 | 0.282 | 0.298 | 0.751 | 0.974 | 0.934
16 | CGQDPCIRELG [UROS_Y19_Y19C] | 0.423 | 0.508 | 0.458 | 0.468 | 0.44 | 0.946 | 0.991 | 0.581 | 0.644 | 0.569 | 0.821 | 0.421 | 0.449 | 0.762 | 1.06 | 1.03
